Results: paper PMC3580838

Tests used:
GST:CcmC(H60A/H184A) = GST:CcmC(H60A/H184A) (UniProt P0ABM1); experiment: pull-down
GST:CcmC(W^5A/D126A) = GST:CcmC(W^5A/D126A) (UniProt P0ABM1); experiment: pull-down

A % CcmE bound with heme (GST:CcmC(H60A/H184A)) of under 4%, a % holoCcmE bound with heme (GST:CcmC(H60A/H184A)) of under 3% and a % CcmE bound with heme (GST:CcmC(W^5A/D126A)) of under 4% were found for “CcmE (from UniProt P69490 30-159) (natural protein)” in this work. For the same substance, the % holoCcmE bound with heme (GST:CcmC(W^5A/D126A)) was under 3%.
